Measurements reported in patent US20250320279A1, “UNGULATE-DERIVED POLYCLONAL IMMUNOGLOBULIN SPECIFIC FOR INFLUENZA VIRUS AND USES THEREOF” (priority 2021, published 2025).

How the values were obtained:
Test in all cases: cell-based or functional assay
[1] = molecular target: hemagglutinin (HA) of influenza A/Brisbane/02/2018 H1N1 (Influenza A virus A/Brisbane/02/2018 (H1N1))
[2] = molecular target: hemagglutinin (HA) of influenza A/California/4/2009 pH1N1 (Influenza A virus A/California/4/2009 (pH1N1))
[3] = molecular target: hemagglutinin (HA) of influenza A/Cambodia/e0826360/2020 (2021-22) H3N2 (Influenza A virus A/Cambodia/e0826360/2020 (H3N2))
[4] = molecular target: hemagglutinin (HA) of influenza A/Guangdong-maonan/2019 (Cell) H1N1 (Influenza A virus A/Guangdong-maonan/2019 (H1N1), (Cell))
[5] = molecular target: hemagglutinin (HA) of influenza A/Guangdong-maonan/2019 (Egg) H1N1 (Influenza A virus A/Guangdong-maonan/2019 (H1N1), (Egg))
[6] = molecular target: hemagglutinin (HA) of influenza A/Hong Kong/2671/2019 (Egg) H3N2 (Influenza A virus A/Hong Kong/2671/2019 (H3N2), (Egg))
[7] = molecular target: hemagglutinin (HA) of influenza A/Hong Kong/4801/2014 H3N2 (Influenza A virus A/Hong Kong/4801/2014 (H3N2))
[8] = molecular target: hemagglutinin (HA) of influenza A/Kansas/14/2017 H3N2 (Influenza A virus A/Kansas/14/2017 (H3N2))
[9] = molecular target: hemagglutinin (HA) of influenza A/Michigan/45/2015 pH1N1 (Influenza A virus A/Michigan/45/2015 (pH1N1))
[10] = molecular target: hemagglutinin (HA) of influenza A/Singapore/INFIMH-16-0019/2016 H3N2 (Influenza A virus A/Singapore/INFIMH-16-0019/2016 (H3N2))
[11] = molecular target: hemagglutinin (HA) of influenza A/Switzerland/9715293/2013 H3N2 (Influenza A virus A/Switzerland/9715293/2013 (H3N2))
[12] = molecular target: hemagglutinin (HA) of influenza A/Victoria/2570/2019 (2021-22) H1N1 (Influenza A virus A/Victoria/2570/2019 (H1N1))
[13] = molecular target: hemagglutinin (HA) of influenza B/Brisbane/60/2008 B-Vic (Influenza B virus B/Brisbane/60/2008 (B-Vic))
[14] = molecular target: hemagglutinin (HA) of influenza B/California/12/2015 B-Yam (Influenza B virus B/California/12/2015)
[15] = molecular target: hemagglutinin (HA) of influenza B/Colorado/06/2017 B-Vic (Influenza B virus B/Colorado/06/2017 (B-Vic))
[16] = molecular target: hemagglutinin (HA) of influenza B/Maryland/15/2016 B-Vic (Influenza B virus B/Maryland/15/2016 (B-Vic))
[17] = molecular target: hemagglutinin (HA) of influenza B/Phuket/3073/2013 B-Yam (Influenza B virus B/Phuket/3073/2013 (B-Yam))
[18] = molecular target: hemagglutinin (HA) of influenza B/Washington/02/2019 B-Vic (Influenza B virus B/Washington/02/2019)

negative control IgG (antibody)
< 1: HAI titer (reciprocal dilution) [1] | HAI titer (Huber virus stock) (reciprocal dilution) [2] | HAI titer (hVIVO virus stock) (reciprocal dilution) [2] | HAI titer (reciprocal dilution) [2] | HAI titer (reciprocal dilution) [3] | HAI titer (reciprocal dilution) [4] | HAI titer (reciprocal dilution) [5] | HAI titer (reciprocal dilution) [6] | HAI titer (reciprocal dilution) [7] | HAI titer (reciprocal dilution) [8] | HAI titer (reciprocal dilution) [9] | HAI titer (reciprocal dilution) [10] | HAI titer (reciprocal dilution) [11] | HAI titer (reciprocal dilution) [12] | HAI titer (reciprocal dilution) [13] | HAI titer (reciprocal dilution) [14] | HAI titer (reciprocal dilution) [15] | HAI titer (reciprocal dilution) [16] | HAI titer (reciprocal dilution) [17] | HAI titer (reciprocal dilution) [18]

SAB-176 Lot 2 V3-V5 (antibody)
1024: HAI titer (hVIVO virus stock) (reciprocal dilution) [2]
512: HAI titer (reciprocal dilution) [1] | HAI titer (Huber virus stock) (reciprocal dilution) [2] | HAI titer (reciprocal dilution) [4] | HAI titer (reciprocal dilution) [5] | HAI titer (reciprocal dilution) [9] | HAI titer (reciprocal dilution) [10]
64: HAI titer (reciprocal dilution) [8]
256: HAI titer (reciprocal dilution) [3] | HAI titer (reciprocal dilution) [12] | HAI titer (reciprocal dilution) [15] | HAI titer (reciprocal dilution) [16] | HAI titer (reciprocal dilution) [17]
128: HAI titer (reciprocal dilution) [6] | HAI titer (reciprocal dilution) [14] | HAI titer (reciprocal dilution) [18]

SAB-176 Lot 1 V3 (antibody)
64: HAI titer (reciprocal dilution) [6] | HAI titer (reciprocal dilution) [8] | HAI titer (reciprocal dilution) [18]
512: HAI titer (reciprocal dilution) [1] | HAI titer (Huber virus stock) (reciprocal dilution) [2] | HAI titer (hVIVO virus stock) (reciprocal dilution) [2] | HAI titer (reciprocal dilution) [4] | HAI titer (reciprocal dilution) [5] | HAI titer (reciprocal dilution) [9] | HAI titer (reciprocal dilution) [10]
128: HAI titer (reciprocal dilution) [3] | HAI titer (reciprocal dilution) [14] | HAI titer (reciprocal dilution) [17]
256: HAI titer (reciprocal dilution) [12] | HAI titer (reciprocal dilution) [15] | HAI titer (reciprocal dilution) [16]

SAB-176 Lot 3 V3-V12 (antibody)
512: HAI titer (reciprocal dilution) [1] | HAI titer (Huber virus stock) (reciprocal dilution) [2] | HAI titer (hVIVO virus stock) (reciprocal dilution) [2] | HAI titer (reciprocal dilution) [4] | HAI titer (reciprocal dilution) [5] | HAI titer (reciprocal dilution) [8] | HAI titer (reciprocal dilution) [9] | HAI titer (reciprocal dilution) [10]
256: HAI titer (reciprocal dilution) [3] | HAI titer (reciprocal dilution) [6] | HAI titer (reciprocal dilution) [12] | HAI titer (reciprocal dilution) [15]
128: HAI titer (reciprocal dilution) [14] | HAI titer (reciprocal dilution) [16] | HAI titer (reciprocal dilution) [17]
64: HAI titer (reciprocal dilution) [18]

SAB-176 Lot 4 V3-V12 (antibody)
512: HAI titer (reciprocal dilution) [1] | HAI titer (Huber virus stock) (reciprocal dilution) [2] | HAI titer (hVIVO virus stock) (reciprocal dilution) [2] | HAI titer (reciprocal dilution) [4] | HAI titer (reciprocal dilution) [5] | HAI titer (reciprocal dilution) [9] | HAI titer (reciprocal dilution) [10]
256: HAI titer (reciprocal dilution) [3] | HAI titer (reciprocal dilution) [6] | HAI titer (reciprocal dilution) [8] | HAI titer (reciprocal dilution) [12] | HAI titer (reciprocal dilution) [15] | HAI titer (reciprocal dilution) [16]
128: HAI titer (reciprocal dilution) [14] | HAI titer (reciprocal dilution) [17] | HAI titer (reciprocal dilution) [18]
